From the supplement of paper PMC10126150
± gives the standard deviation of the averaged measurements.

System: ATP
Experiment: switch fluorescence ratio, 500 uM ATP over buffer (Cy3 cluster intensity, sum of 5 cycles each) (fold (ratio)); higher = stronger signal-on switching upon ATP binding; sequences stand for … in TCGTCGGCAGCGTCAGATGTGTATAAGAGACAGTTTTTTTTTTTTTTTTTTTTTTTTT…TC
Details: aptamer strand: ATP DNA aptamer (quencher-CACCTGGGGGAGTATTGCGGAGGAAGG + anchor), 100 nM annealed; ATP concentration: 500 uM
Method in brief: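 Imaging in selection buffer was followed by imaging after 15 min with 500 uM ATP at 22 °C, for Cy3-labelled switching-strand clusters annealed to 100 nM quencher-labelled ATP aptamer on a modified Illumina MiSeq flow-cell. Five of these buffer/ATP cycles ran, separated by NaOH stripping and re-annealing. The fluorescence ratio per cluster is summed target-cycle over summed buffer-cycle Cy3 intensity, averaged per switch-domain sequence; clusters outside 100-1000 RFU were removed.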
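Also: ATP exposure 15 min at 22 °C before imaging.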

Sequence | switch fluorescence ratio
GGGTATCACT | 0.992 ± 0.016
GGGATATTGG | 0.992 ± 0.013
AAAAAGGGT | 0.987 ± 0.032
GGTACAAGAT | 1.03 ± 0.013
TTTCCATTGT | 0.995 ± 0.048
TTAGAGTACG | 1.036 ± 0.0075
TTTACTAATA | 1.02 ± 0.014
TAGCACTGAG | 1.05 ± 0.043
AGCTAGTTAC | 1.38 ± 0.014
TGAGGGTTTG | 1.02 ± 0.044
TGCAAGGTTT | 1.05 ± 0.1
TGTTTGAGTT | 0.987 ± 0.039
CGGATGGGGT | 0.973 ± 0.038
TACCGGTTCG | 1 ± 0.011
CCAGCAGCGG | 1.12 ± 0.063
CCCTTAGTGC | 1.14 ± 0.022
AAATTGGGCA | 0.997 ± 0.029
CTGACAGCGG | 1.06 ± 0.033
AGTTCGATGT | 1.01 ± 0.025
AAAATAGGCC | 1.02 ± 0.013
GTATGTATTT | 0.986 ± 0.021
AACAAACCGT | 1.1 ± 0.017
GTGGTACGTG | 1 ± 0.064
TTATGATTGG | 0.987 ± 0.02
GCTTCCGAGA | 1.87 ± 0.05

Sequence | switch fluorescence ratio
CGATTTCAGG | 1.02 ± 0.036
CTATGCGGTC | 2.39 ± 1.8
GCGACCAGGC | 1.14 ± 0.079
TGGGGGACTA | 0.967 ± 0.033
ATGATCGCGT | 1.01 ± 0.024
TATCGTCGGA | 0.9823 ± 0.0035
GTTGATTTGC | 1.02 ± 0.089
TTAGCATATA | 2.42 ± 1.9
AAAAATTGTT | 0.986 ± 0.027
ACATAGGGTA | 1.01 ± 0.013
CTGAAGCTAG | 2.27 ± 0.0024
TTGTTTTCAC | 1.28 ± 0.4
TTGGCTAGTT | 1 ± 0.029
AGCTGTTTAG | 1 ± 0.014
CGTTTGTTAT | 1.05 ± 0.04
ATAGCAGTTT | 1.02 ± 0.013
GCCGCTACCT | 1.11 ± 0.079
GCACCCCGCC | 1.33 ± 0.036
GCTGGGTAAT | 1.02 ± 0.044
ACGATAATTT | 1.18 ± 0.035
TTAATTGTAT | 0.992 ± 0.034
GGTTTGCAGG | 0.967 ± 0.05
AGTACGAGCC | 1.186 ± 0.0026
ATATAGTTTT | 0.953 ± 0.011
ATAGGAAGGG | 0.996 ± 0.019

Sequence | switch fluorescence ratio
GTGGCGGGAG | 0.997 ± 0.017
ATCGTGTATG | 0.968 ± 0.028
TTTTGGGTC | 0.999 ± 0.034
TCCGGTTAGT | 1.04 ± 0.015
AAGCATCACG | 1.07 ± 0.011
TGTTTGGGCT | 1.02 ± 0.041
TTTTCATGGC | 1.06 ± 0.018
CGGTACTATA | 1.055 ± 0.0086
TTTATATTCG | 0.989 ± 0.033
ATTTCGTCGT | 1.01 ± 0.03
GGTGGGGGAG | 1.01 ± 0.043
CAGGACATTA | 0.994 ± 0.058
TGTTAGTCGT | 1.013 ± 0.0091
TTTGTTTGTT | 0.986 ± 0.02
AGAATGTGC | 0.9956 ± 0.0047
ACTTAATAAC | 1.03 ± 0.013
GAAGGTAGGG | 0.99 ± 0.051
TTGCCTGCAT | 1.011 ± 0.0092
GGGCGCCAGG | 1.33 ± 0.66
CTGGGAATTG | 1.05 ± 0.043
TTACACTGTG | 1.001 ± 0.0054
TGAGGGGCTA | 1.01 ± 0.049
TTGCTGTGTC | 1.07 ± 0.028
TCAGGGAGGT | 0.989 ± 0.051
AATGAGTTTG | 0.991 ± 0.019

Sequence | switch fluorescence ratio
TTCGGTGGAG | 0.96 ± 0.081
TATTGAGAGC | 1.01 ± 0.064
TTAGTGACA | 1.042 ± 0.0095
GGGCTAGTCG | 1.01 ± 0.034
TCGGACTGAG | 0.968 ± 0.029
TGTGCCGCGC | 1.06 ± 0.07
GACCCTTAGA | 1.01 ± 0.011
AGCGTACTCG | 1.11 ± 0.047
GGGGGGAGTA | 1.01 ± 0.056
TTTACTGTTT | 1.01 ± 0.082
ATTCAGGTGT | 2.66 ± 0.29
CAGTAGTCGA | 1.03 ± 0.014
TTTGTGGACT | 1.01 ± 0.031
TAAGGACGGA | 1.01 ± 0.071
CGTTGTGGGG | 0.966 ± 0.023
GGATGAATGG | 1.03 ± 0.043
ATTAGGATTT | 0.998 ± 0.0097
GAATCGTCG | 0.983 ± 0.025
TATGCAGTA | 1.3 ± 0.038
CTGAACGAAT | 1.43 ± 0.034
TTGTTGTTGT | 0.988 ± 0.021
AGGACCGGGT | 1.03 ± 0.021
CAGTAAAGTG | 0.998 ± 0.017
GACCGTGGGG | 1 ± 0.027
TTTACTAAGG | 1.03 ± 0.02

Sequence | switch fluorescence ratio
TCTTTTCATT | 0.994 ± 0.022
CGACCGGGGA | 1.04 ± 0.011
CGTGGTCATC | 0.9766 ± 0.0073
ACGAGGGGCG | 1 ± 0.045
AGTGGGGCTT | 0.985 ± 0.043
AGGTTAGTGT | 0.9584 ± 0.001
ACGAGTTAGG | 1.044 ± 0.0014
TTGGGCTGCT | 0.9743 ± 0.00051
GAGGGGGATA | 1.03 ± 0.058
GGGTTTGTGG | 0.984 ± 0.023
ATGTGACAGC | 0.955 ± 0.062
TATATTTGGG | 0.998 ± 0.034
TCATGTCGGG | 1.005 ± 0.01
AGTCGAGTGG | 1.02 ± 0.047
ATTAGGTCGG | 0.979 ± 0.023
CATATAATTG | 0.976 ± 0.014
CTGCACATGG | 1.7 ± 0.21
TTTCAATTAA | 1 ± 0.013
TGCCTAATTG | 0.977 ± 0.026
GTATTCTCCA | 1.018 ± 0.0043
TACGCACATA | 1.48 ± 0.15
AAGCGGGAGC | 1.026 ± 0.0049
AGTATTCAAA | 1 ± 0.018
AATTGGTAGC | 0.966 ± 0.015
GTCTGATTTA | 1.01 ± 0.011

Sequence | switch fluorescence ratio
GAAACGCGTA | 0.994 ± 0.021
AAATGCCACG | 1.06 ± 0.017
TCGATTATTT | 1.016 ± 0.0059
TAATGGAGTA | 1.01 ± 0.052
ACGGGGAAAG | 0.9916 ± 0.0019
AGGGGGCAAC | 1.04 ± 0.03
TTTATGAGAT | 1 ± 0.027
TGGAATAGGG | 0.992 ± 0.011
CAGCTTTTCG | 0.998 ± 0.046
TCATAGAGG | 0.9822 ± 0.0058
GTTGGAGCAT | 1.086 ± 0.0023
GAAACTAGAG | 0.986 ± 0.0047
TGGGAAAGGG | 1.01 ± 0.036
TACAGTGTTT | 0.975 ± 0.025
CTTCTTTGGG | 1 ± 0.024
ATATGAAAAT | 1.01 ± 0.032
AAAGCTTCAT | 1.46 ± 0.088
AGGGCATAAG | 0.982 ± 0.062
GAGCTCAGTG | 1.002 ± 0.0069
ACAAGTGAGG | 1.02 ± 0.023
GGTGATGAGA | 0.991 ± 0.06
TACAAAGATG | 1.025 ± 0.0056
AGCGATGGCC | 1.05 ± 0.028
AAGTAGGTGC | 1.13 ± 0.02
TTTATAGTAT | 0.993 ± 0.03

Sequence | switch fluorescence ratio
AGGGTGGTTG | 0.987 ± 0.058
AAGTGGAATG | 1.02 ± 0.03
TAAATTTTCA | 1.03 ± 0.031
AAGGGGATGT | 1.03 ± 0.032
GGCTTCGGGA | 1.01 ± 0.054
GTGGTGGGTG | 1 ± 0.091
GATTTCGGTC | 1.05 ± 0.056
GGACTAGATG | 0.978 ± 0.013
TGGATTGTGT | 0.9735 ± 0.0032
CCCGTTTGGG | 0.981 ± 0.023
AATTACCGGT | 0.979 ± 0.045
TTCAAATCGT | 0.991 ± 0.013
TAATTGGGAG | 1.01 ± 0.02
GGGAGTGTGC | 1.016 ± 0.0053
GACGGTTTAG | 1.04 ± 0.058
GGTGGTGGGA | 0.977 ± 0.04
TTGCCAAGTG | 1.01 ± 0.02
AGTGGTCG | 1.04 ± 0.033
CGATTTGGCA | 1.01 ± 0.0076
CTAACTTGCG | 0.995 ± 0.014
CACCAGGGCA | 1.54 ± 0.066
GGGCGTGTTG | 1.027 ± 0.01
AGGTTCAGTC | 1.02 ± 0.022
GGTAGGACTC | 1 ± 0.026
TTTGACCTGG | 0.981 ± 0.043

Sequence | switch fluorescence ratio
GTTTTTCTGG | 0.9738 ± 0.0078
TTTGTAGGCC | 0.989 ± 0.03
TGCAGCTGCG | 0.974 ± 0.049
TATGGGGGTT | 0.987 ± 0.022
CCCAGGCCCG | 1.058 ± 0.0088
TAAGGAGACA | 1.01 ± 0.045
ACCTAGTGGG | 1.005 ± 0.0087
TTATTTGGGC | 1.06 ± 0.081
TCAACGAAGA | 1.01 ± 0.018
CCGTTTGAAA | 1.01 ± 0.006
AGGAATATCA | 0.998 ± 0.041
ACTTTGGTAT | 0.982 ± 0.029
GAAATCCAGG | 1.297 ± 0.0087
CGGTGATTTT | 1.02 ± 0.03
TGCAGAAGCC | 1.02 ± 0.026
TAAGGGCAAG | 1.01 ± 0.013
CCGTTTTTGC | 1.14 ± 0.09
TTGCGTATGC | 1.08 ± 0.11
TGTTCTTCCG | 1.23 ± 0.1
GGGGTTTGCA | 0.978 ± 0.046
TGGGAAAATC | 1.63 ± 0.81
TTAGGCTAAT | 1.02 ± 0.025
CTCGGTGGTG | 0.959 ± 0.024
GCTAGAATGT | 1 ± 0.019
CGCATTTGCT | 1.15 ± 0.07
